The text below walks through data of PMC2666446 (Journal of molecular biology, 2008).

Series [1] deals with T1, MutS (Escherichia coli, UniProt P23909 1-853).
T1 sequence: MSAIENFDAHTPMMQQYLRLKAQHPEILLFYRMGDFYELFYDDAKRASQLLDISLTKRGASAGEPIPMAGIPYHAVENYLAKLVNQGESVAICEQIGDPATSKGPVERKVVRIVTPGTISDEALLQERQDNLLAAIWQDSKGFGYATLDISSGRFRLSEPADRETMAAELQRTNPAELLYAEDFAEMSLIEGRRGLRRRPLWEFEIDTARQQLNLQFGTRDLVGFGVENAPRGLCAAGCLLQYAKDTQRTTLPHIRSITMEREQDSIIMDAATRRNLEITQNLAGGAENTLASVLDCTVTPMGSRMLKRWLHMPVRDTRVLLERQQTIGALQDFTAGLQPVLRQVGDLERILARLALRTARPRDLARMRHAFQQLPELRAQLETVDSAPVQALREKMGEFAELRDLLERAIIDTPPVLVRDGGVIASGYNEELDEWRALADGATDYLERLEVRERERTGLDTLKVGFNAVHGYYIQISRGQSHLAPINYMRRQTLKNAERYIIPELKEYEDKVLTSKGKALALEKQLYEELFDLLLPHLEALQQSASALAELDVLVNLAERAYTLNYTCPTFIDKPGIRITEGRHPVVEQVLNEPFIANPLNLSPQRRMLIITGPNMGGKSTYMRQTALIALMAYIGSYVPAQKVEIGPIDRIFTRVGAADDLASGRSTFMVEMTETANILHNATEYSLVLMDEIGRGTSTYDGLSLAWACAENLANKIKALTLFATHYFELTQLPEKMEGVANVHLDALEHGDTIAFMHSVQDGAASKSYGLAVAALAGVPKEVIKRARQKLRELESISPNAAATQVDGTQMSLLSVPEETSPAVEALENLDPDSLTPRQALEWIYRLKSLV
Put plainly: FRET equilibrium titration.

For series [2], the target named is T1, MutS. Put plainly: FRET equilibrium titration. This is another data set of the same source.
The next series concerns the target T2, mutS-A842E (Escherichia coli, UniProt P23909 1-853, A842E).
T2 sequence: T1 sequence with A842E
Put plainly: EMSA. (A gel shift assay detects complexes by their altered migration in electrophoresis.)

Series [3] concerns the target T1, MutS. Put plainly: FRET equilibrium titration. The source holds these as a separate data set.
Series [4] has as its target T1, MutS. Put plainly: stopped-flow FRET kinetics.
For series [5], the target named is T1, MutS. Put plainly: stopped-flow FRET kinetics. The source holds these as a separate data set.
The target in series [6] is T1, MutS. Put plainly: stopped-flow FRET kinetics. The source holds these as a separate data set.
Series [7] addresses T1, MutS. Put plainly: stopped-flow FRET kinetics. The source holds these as a separate data set.
Series [8] deals with T1, MutS. Put plainly: stopped-flow FRET kinetics. This is another data set of the same source.
Series [9] concerns the target T1, MutS. Put plainly: stopped-flow FRET kinetics. This is another data set of the same source.
Series [10] concerns the target T1, MutS. Put plainly: stopped-flow FRET kinetics. The source holds these as a separate data set.
In series [11] the target is T1, MutS. Put plainly: FRET equilibrium titration. This is another data set of the same source.
Series [12] addresses T1, MutS. Put plainly: FRET equilibrium titration. This is another data set of the same source.

Positions count from the first letter of the chain named.

B1: 30-1ΔT (dsDNA)
DNA 1: AACTGCCAGGCACCAGTGTCAGCGTCGTAT
DNA 2: ATACGACGCTGACACTGGTGCCTTGGCAGTT
For B1, the Kd – broadly, the constant that tells how readily two partners part at equilibrium – with MutS [1] stood at 62 nM; in the series with MutS [2] it was 56 nM; with MutS [3] it was 123 nM; with MutS [4], 137 nM; with MutS [5], 91 nM; with MutS [6] it was 50 nM. Besides, the Kd in the series with MutS [7] turned out to be 27 nM; with MutS [8], 321 nM; with MutS [9], 39 nM. Also, the binding result with mutS-A842E is given as “binds”.

B2: 30-GT (dsDNA)
DNA 1: B1 DNA 1
DNA 2: ATACGACGCTGACACTGGTGCTTGGCAGTT
B2: the Kd is 74 nM with MutS [1]; 91 nM with MutS [5]; 26 nM with MutS [10]; about 176 nM with MutS [11]; 69 nM in the series with MutS [12].
